The target in assay [1] is FP-TM(-)-His, His-Tag-added hMPV (JPS02-76) FP lacking the transmembrane region (amino acid residues 491 to 539 of FP) (human metapneumovirus, strain JPS02-76 (type B1)) (UniProt Q6WB98).
Assay [2] has the same target. The experiment in a line: SPR, Biacore T-200; antibody captured by anti-human IgG, FP-TM(-)-His as analyte.
Assay [3] has as its target F protein of human metapneumovirus strain JPS02-76 (type B1), on infectious virus (human metapneumovirus, strain JPS02-76 (type B1)) (UniProt Q6WB98). The experiment in a line: cell-based or functional assay.
In assay [4] the target is F protein of human metapneumovirus strain JPS05-21 (type B2), on infectious virus (human metapneumovirus, strain JPS05-21 (type B2)). The experiment in a line: cell-based or functional assay.
Assay [5] has as its target F protein of human metapneumovirus strain JPS03-178 (type A2), on infectious virus (human metapneumovirus, strain JPS03-178 (type A2)). The assay is described as follows: cell-based or functional assay.
Assay [6] has as its target F protein of human metapneumovirus strain JPS03-180 (type A1), on infectious virus (human metapneumovirus, strain JPS03-180 (type A1)). The assay is described as follows: cell-based or functional assay.

One substance from US20150322137A1 can be followed below.

Where two headings read alike, the source gives them in different places.

For the substance mouse anti-hMPV antibody mAb338, in assay [1], the Kd was less than 10 nM. In assay [2], this substance yielded a Kd of 0.531 nM, a koff of 0.000228 s⁻¹ and a kon of 434000 M⁻¹ s⁻¹. For the same substance, in assay [3], the IC50, cell-to-cell spread inhibitory activity (LLC-MK2 cells stably expressing TMPRSS2) turned out to be 21.5 ng/mL; the IC50, neutralizing activity (hMPV infection of LLC-MK2 cells; GraphPad Prism 6) worked out at 281 ng/mL; the IC60, neutralizing activity (hMPV infection of LLC-MK2 cells; GraphPad Prism 6) stood at 338 ng/mL; the IC90, cell-to-cell spread inhibitory activity (LLC-MK2 cells stably expressing TMPRSS2) was found to be 93.8 ng/mL. This substance also displayed an IC90, neutralizing activity (hMPV infection of LLC-MK2 cells; GraphPad Prism 6) in assay [3] of 772 ng/mL. In assay [4], the IC50, neutralizing activity (hMPV infection of LLC-MK2 cells; GraphPad Prism 6) was found to be 221 ng/mL; the IC60, neutralizing activity (hMPV infection of LLC-MK2 cells; GraphPad Prism 6) amounted to 261 ng/mL; the IC90, neutralizing activity (hMPV infection of LLC-MK2 cells; GraphPad Prism 6) amounted to 547 ng/mL. In assay [5], the IC50, neutralizing activity (hMPV infection of LLC-MK2 cells; GraphPad Prism 6) was 180 ng/mL; the IC60, neutralizing activity (hMPV infection of LLC-MK2 cells; GraphPad Prism 6) was found to be 239 ng/mL; the IC90, neutralizing activity (hMPV infection of LLC-MK2 cells; GraphPad Prism 6) was determined as 856 ng/mL. In assay [6], the IC50, neutralizing activity (hMPV infection of LLC-MK2 cells; GraphPad Prism 6) was found to be 125 ng/mL; the IC60, neutralizing activity (hMPV infection of LLC-MK2 cells; GraphPad Prism 6) came out at 160 ng/mL; the IC90, neutralizing activity (hMPV infection of LLC-MK2 cells; GraphPad Prism 6) is 498 ng/mL.

By Kd is commonly meant the constant that tells how readily two partners part at equilibrium. A low value points to a tighter complex. One may read the koff as the rate constant with which the complex falls apart. Low values mean a long-lived complex, high ones a short-lived complex. For orientation: kon means the second-order rate constant of association. The low end stands for slow association, the high end for fast association.
